{"source": "paper PMC11672753", "about": "(Plant Biotechnology Journal, 2024)", "binders": {"B1": {"name": "M15 (plant-produced COVA2-15, conventional IgG1) (antibody, V domains shown)", "VH": "QVQLLESGGGLVQPGGSLRLSCAASGFTFSSYAMSWVRQAPGKGLEWASAISGSGGSTYYADSVEGRFTISRDNSKNTLYLQMNSLRAEDTAVYYCAKDTGYCGDDCYIKLIRGGPDYWGQGTLVTVSS", "VL": "DIVMTQSPLSLPVTLGQPASISCRSSQSLVYSDGNTFLNWFQQRPGQSPRRLIYQVSNRDSGVPDRFSGSGSGTDFTLKISRVEAEDVGVYYCMQGTHWPRTFGQGTKLEIK"}, "B2": {"name": "S15 (plant-produced COVA2-15, single-chain (sc)Fv-Fc format) (Fc fusion, human)", "VH": "B1 VH", "VL": "B1 VL"}}, "target": "T1, SARS-CoV-2 RBD (Wuhan), hexahistidine-tagged (SARS-CoV-2, UniProt P0DTC2)", "T1 construct": "also called recombinant RBD protein", "assay": "BLI", "conditions": "both partners purified"}
{"binder": "B1", "values": [{"measurement": "binding result", "value": "binds"}]}
{"binder": "B2", "values": [{"measurement": "binding result", "value": "binds"}]}
